In the nanobody polyreactivity screen of Harvey et al. (2022):

Assay: yeast display, Sf9 membrane polyspecificity reagent, FACS + sequencing; frameworks hold sequencing errors
Method in brief: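 Nanobodies from a synthetic yeast display library (Saccharomyces cerevisiae BJ5465), induced 36–48 hours with galactose, were stained 1 hour at 4 °C with 10% biotinylated, detergent-solubilized Sf9 membrane reagent, enriched on streptavidin microbeads, then FACS-sorted. Anti-HA (expression) and streptavidin (reagent binding) fluorescence set low and high (top ~1%) gates. Polyreactivity labels come from the gate of origin. Genes were colony-PCR amplified, MiSeq 2 × 250 sequenced and filtered by CDR length.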

| Sequence | polyreactivity (PSR sort gate) |
| --- | --- |
| QVQLVESGGGLVQAGGSLRLSCAASGSTFPRYAMGWYRQAPGKERELVAAISSGGSTYYADSVKGRFTISRDNAKNTVYLQMNSLKPEDTAVYYCNARRSRSRYDYWGQGTQVTVSS | high polyreactivity |
| QVQLVESGGGLVQAGGSLRLSCDPSGYTLVDYAMGWYRQAPGKESELVAGISSGDSTYYADSVKGRFTISRDNAKNTVYLQMNSLKPEDTAVYYCNAGLKTIFLLYRWTLFDYWGQGTQVTVSS | high polyreactivity |
| QVQLVESGGGLVQAGGSLRLSCAASGRIFGRNAMGWYRPAPGKERELVADISYRGGRPYYADSVKGRFTISRDNAKNTVYLQMNSLKPEDTAVYYCNAGVYRSGGRKYDYWGQGTQVTVSS | high polyreactivity |
| QVQLVESGGGLVQAGGSLRLSCAASGRTFHSYAMGWYRQAPGKERELVAVITRRGGSTYYADSVKGRFTISRDNAKNTVYLQMNSLKPEDTAVYYCNKGKSYTYDYWGQGTQVTVSS | high polyreactivity |
| QVQLVESAGGLVQAGGSLRLSCAASGITFWYYTMGWYRQAPGKERELVAAINGRGGSTYYADSVKGRFTISRDNAKNTVYLQMNSLKPEDTAVYYCNAVGIWFQIRLIVPYDYWGQGTQVTVSS | low polyreactivity |
| QVQLVQSGGGLVQAGGSLRLSCAASGSIFTSYAMGWYRQAPGKERELVAAINGSGGSTFYADSVKGRFTISRDHAKNTVYLQMNSLNPEYTAVYYCYTVGPRGTTYDDWGQGSQVTVSS | low polyreactivity |
| QVQLVESGGGLVQAGGSLRLSCAASGRIFRYNAMGWYRQAPGKERELVAAITNSCSTNYADSVKGRFTISRDNAKNTVYLQMNSMKQEDTAVYYCAARARFYGGRSYDYWGQGTQVTVSS | high polyreactivity |
| QVQLVESGGGLVQAGGSLRLSCAASGFTFPAYVMRWYRQAPGKERELVAAISKSGGSTYYADSVKGRFTISRDNAKNTVYLQMNCLKPEDTAVYYCAKYWVTRRFQYDYWGQGTQVTVSS | high polyreactivity |
| QVQLVESGGGLVQAGGSLRLSCAASGSTFGRYAMGWYRQAPGKERELVAGITSSGRTNYADSVKGRFTISRDNAKNTVYLQMNSLKPEDTAVYYCAKRWLRYGYRYDYWGQGTQVTVSS | high polyreactivity |
| QVLLVESGGGLVQAGGSLRLSCAASGSTFLRYTMGWYRQAPGKERELVAAINYGGGSTYYADSVKGRFTISRDNAKNTVYLQMNSLKPEDTAVYYCAAGFFRSAHGGKFYYWGQGTQVTVSS | high polyreactivity |
| QVQLVESGGGLVQAGGSLRLICAASGRIFRGYVMGWYRQAPGKERELVASIDRSGASTYYADSVKGRFTISRDNAKNTVYLQMNSLKPEDTAVYYCNALVYLRTSRYYYWGQGTQVTVSS | high polyreactivity |
| QVQLVESGGGLVHAGGSLRLSCAASGIILSDNSMGWYRQAPGKEREVVAAITGSGGSTYYADSVKGRFTISRDNAKNTVYLQMNSLKPEDTAVYYCAADGPYGYYYGHYGYWGQGTQVTVSS | low polyreactivity |
| QVQLVESGGGLVQAGGSLRLSCAASGITFWGYAMGWYRQAPGKEREFVARINWSGGRTYYAESVKGRFTISRDNAKNTVYLQMNSLKPEDTAVYYCAATSLIYCYRTYYYWGQGTQVTVSS | high polyreactivity |
| QVQLVESGGGLVQAGGSLRLSCAASGSTFAPYAMGWYRHAPGKERELVASIRSTGSTNYADSVKGRFTISRDNAKNTVYLQMNSLKPEDTAVYYCAARYRRYQYRVKVDYYYWGQGTQVTVSS | high polyreactivity |
| QVQLVESGGGLVQAGGSLRLSCAASGSISDSYAMGWYRPAPGKERELVAAITSGDSTYYADSVKGRFTISRDNAKNTVYLQMNSLKPEDTAVYYCAKRVSRVLGYGFTDWSEYDYWGQGTQVTVSS | low polyreactivity |
| QVQLVESGGGLVQAGGSLRLSCAASGSTFVFNAMGWYRPAPGKERELVAAISSTGSTYYADSVKGRFTISRDNAKNTVYLQMNSLKPEDTAVYYCAAPYGFSYKGATYDSWGQGTQVTVSS | high polyreactivity |
| QVQLVESGGGLVQAGGSLRLSCAASGSIFYRNTMGWYRQAPGKERELVASINTGTGTYYADSVKGRFTISRDNAKNTVYLQMNSLKPEDTAVYYCNKVSYVKYGYWGQGTQVTVSS | high polyreactivity |
| QVQLVESGGGLVQAGGSLRLSCAASGLIFLSYGMGWYRQAPGKERELVAAISSGGSTYYADSVKGRFTISRDNAKNTVYLQMNSLKPEDTAVYYCAAEQPIEFDHWGQGTQVTVSS | low polyreactivity |
| QVQLVESGGGLVQAGGSLRLSCAASGSIFVPYAMGWYRQAPGKERELVAAISSRGGRTYYADSVKGRFTISRDNAKNTVYLQMNSLKPEDNAVYYCNKTAGSHIPRLEYWGQGTQVTVSS | low polyreactivity |
| QVQLVESGRGLVQAGGSLRLSCAASGITFGDNVMGWYRQAPGKERELVAAISRIGDDTYYADSVKGRFTISRDNAKNTVYLQMNSLKPEDTAVYYCATDYTQRDYYNYGYWGQGTQVTVSS | low polyreactivity |
| QVQLVESGGGLVQAGGTLRLSCAASGRTLRRYAIGWYRQAPGTERELVADNSWRGTSTNYADSVKGRFTISRDNAKNTVYLQMNSLKPEDTAVYYCAAKQTYTRLHYLGPSVWDNYDYWGQGTQVTVSS | high polyreactivity |
| QVQLVESGGGLVQAGGSLRLSCAASGITFKAYAMGWYRQAPGKERELVAAITGSGGRTYYADSVKGRFTISRDNAKNTVYLQMNSLKPEDTAVYYCAKTSSWYLRPKYYYWGQGTQVTVSS | high polyreactivity |

| Sequence | polyreactivity (PSR sort gate) |
| --- | --- |
| QVQLVESGGGLVQAGGSLRLSSAASGITFRRYAMGWYRQAPGKERELVASITSGGSTNYADSVKGRFTISRDNAKYTVYLQMNSLKPDDTAVYYCAADSRWGMDYWGQGTQVTVSS | high polyreactivity |
| QVQLVESGGGFDHAGGSLRLSCAAYGSTFVYNAMGWYRQAPGKERELVAAITSTGGNTDYADSVKGRFTISRDNAKNTVYLQMNSLKPEDTAVYYCNARDYYWLGFTYRFDYWGQGTQVTVSS | low polyreactivity |
| QVQLVESGGGLVQAGGSLRLSCAASGRTFAPYTMGWYRQAPGKERELVAAINFNGGGTYYADSVKGRFTISRDNAKNTVYLQMNSLKPEDTAVYYCYYLYNYWGQGTQVTVSS | low polyreactivity |
| QVQLVESGGGLVQAGGSLRLSCAASGSTFKRYAMGWYRQAPGKERELVAAITNGDRTNYADSVKGRFTISRDNAKNTVYLHMNSLKPEDTALYYCAAAYSRYTSRFYYWGQGTQVTVSS | high polyreactivity |
| QVQLVESGGGLVQAGGSLRLSCAPSGRTFGGYVRGRYRQAPGKERELVATITYSGGSTHYADSVKGRFTISRDNAKITVYLQMNSLKPEDTAVYYCARRRSYRYPSEYNYWGQGTQVTVSS | high polyreactivity |
| QVQLVESGGGKVQAGGSLRLSCAASGLTFWSYAMGWYRQAPGKERELVAAISGTGGRTYYADSVKGRFTITRDNAKNTVYLQMTSLKPEDTAVYYCTARTWRWYFTFDYWGQGTQVNVSS | high polyreactivity |
| QVQLVESGGGLVQAGGSLRLSCAASGRIFPYYTMGWYRQAPGKERELVAAITSGGITYYADSVKGRFTISRDNAKNTVYLQMKSLKPEDTAVYSCAALHSGKYTRYKYGYWGQGTQVTVSS | high polyreactivity |
| QVQLVESGGGLVQAGGSLRLSCAASGTFSFYAMGWYRQAPGKERELVAAITRSSSRTYYADSVKGRFTISRDNAKNTVYLQMNSLKPEDTAVYYCRAKQVNRFDYWGQGTQVTVSS | high polyreactivity |
| QVQLVESGGGLVKAGGSLRLSRAASGSIFPRYAMGWNRQAPGKERELVAAITSSAASTYYADSVKGRFTISRDNAKNTVYLQMNSLKPEDSAVYYCAASGPWSYWYYYWGQGTQVTVSS | low polyreactivity |
| QVQLVESGGGLVQAGGSLRLSCAASGRIFAYNTMGWYRQAPGKEREMVAVITSGGSTNYADSVKGRFTISRDNAKITVYLQMNSLKPEDTAVYYCAKRPYGRSGGSRYDYWGHGTQVTVSS | high polyreactivity |
| QVQLVESGGGLVQAGGSLRLSCAASGRIFYGNDRGWYRQAPGKERELVAAITWSGGSTYYADSVKGRFTISRDNAKNTVYLQMNSLKPEDTAVYYCAAVPRRGWDIRRYDSWGQGTQVTVSS | high polyreactivity |
| QVQLVESGGGLVQAGGSLRLSCAASGRIFVNNAMGWYRQAPGKEREFDATITSSGGRTYYADSVKGRFTISRDNAKYTVYLQMNSLKPEDTAVYYCAARPQNNGRNPVYRYNYWGQGTQVTVSS | high polyreactivity |
| QVQLVESGGGLVQAGGSLRLSCAASGRTFGRYAMGWYRQAPGKERELVASITSRGGSTYADSVKGRFTISRDNAKNTVYLQMNSLKPEDTAVYYCASRDKYRYWYAYWRQGTQVTVSS | high polyreactivity |
| QLQHVESGVGIVQAGRSLRLSCAASGRTFSHYAMGWYRQAPGKERELVAAIRWRGGSTYYADSVKGRFTISRDNAKNTVYLQMNSRKPEDTAVSYCAAVALYIWTHPSDYWGLGTQVTVSS | high polyreactivity |
| QDQLVESGGGLVQAGGSLRLSCAASGSTFTYNTKGWYRQAPGKERELVAAITTSGGNTYYADSVKGRFTISRDNAKNTVYLQMNSLKPVDTAVYYCAAGYSWAEGDYWGQGTQVTVSS | low polyreactivity |
| QVQLVESGGGLVQAGGSLRLSCAAYGSIFAHYAMGWYRQAPGKERELVARISWSGGSTYYADSVKGRFSISLDNAKNTVYLQMNSLKPEDTAVYYCSADLTSKSSPQGYRYDYWGQGTQVTVSS | low polyreactivity |
| QVQLVESGGGLVQAGGSLRLSCAASGLIFVQYVMGWYRQAPGKERELVAAITDDGNTYYADSVKGRFTISRDNAKNTVYLQMKSLKPEDTAVYYCNAVLRSYDFWPGYGYWGQGTQVTVSS | low polyreactivity |
| QVQLVESGGGLVQAGGSLRLSCAASGRIFAHNAMGWYRQAPGKERELVAAISGTGGRTYYADSVKGRFTISRDNAKNTVYLQMNSLKPEDTAVYYCARRPTHRTGVLDWEYDYWGQGTQVTVSS | low polyreactivity |
| QVQLVESGGFLVQAGGSLRLSCAASGSTSYNYVMGWYRQAPRKERELVAGITWSDDITYYADSVKGRFSISRDNAKNTVYLQMNSLKPEDTAVYYCAAEDGPLYWRFPDEMDYWGQGTQVTVSS | low polyreactivity |
| QVQLVESGGGLVQAGGSLRLSCAASGFIFYTNAMAWYRQAPGNERQLVATLTTSGGRTYYADSVKGRFTISRDNAKNSVYLQMNSLKPEDTAVYYCATRYVVIEYDYWGQGTEVTVSS | low polyreactivity |
| QVHLVDSGGGLVQAGGSLRLSCAASGYTFIAYTMGWYRQAPGKERELVAAITTGGRTYYADSVKGRFTISRDNAKNTVYLQMNSLKPEDTAVYYCAAYYSARYKYGGVDYWGQGTQVTVSS | high polyreactivity |
